Laboratory results reported in US20260125455A1 (CLEVELAND CLINIC FOUNDATION, published 2026).

Legend:
[1] = target: T1, human complement protein C6 (human, UniProt P13671 22-934); assay: BLI (Octet RED384), antibody on anti-mouse Fc (AMC) biosensors, C6 0.16-10 nM, 1:1 fit, experiment 1
T1 construct: also called human C6; C6 antigen
Protocol: (§1) The binding of the purified chimeric molecules, MoC601 HuG4K and MoC601 HuG1KFab, was also confirmed by ELISA, where the anti-human IgG (Fab-specific) secondary reagent was used. The control mouse antibody bound as previously (EC₅₀ 0.11 nM). The EC₅₀ for purified MoC601 HuG4K (0.27 nM) was similar to that obtained for the MoC601 HuG4K supernatant sample above. […] The EC₅₀ value for the Fab molecule (0.48 nM) was higher than for the antibody, which would be expected since the Fab is unable to bind bivalently to the antigen on the well. A C6-binding assay was also set up on the Octet RED384 instrument. […] However, MoC601 MoG1K could be stably loaded onto anti-mouse Fc (AMC) biosensors. Concentrations of the mouse and chimeric antibodies were adjusted to give similar levels of loading on to the AMC and
(§2) Protein G biosensors respectively in subsequent experiments. There was no non-specific binding of C6 protein to unloaded sensors or sensors loaded with an isotype control antibody. A full kinetic experiment was run for purified MoC601 MoG1K and MoC601 HuG4K antibodies using seven concentrations of C6 (0.16-10 nM) and association and dissociation steps of 20 and 15 minutes respectively. The mouse and chimeric datasets were processed by subtracting the no antigen controls and the data were fitted to a 1:1 binding model. […]

[2] = target: T1, human complement protein C6; assay: BLI (Octet RED384), antibody on anti-mouse Fc (AMC) biosensors, C6 0.27-5 nM, 1:1 fit, experiment 2
Protocol: as §1
Protein G biosensors respectively in subsequent experiments. There was no non-specific binding of C6 protein to unloaded sensors or sensors loaded with an isotype control antibody. […] The mouse and chimeric datasets were processed by subtracting the no antigen controls and the data were fitted to a 1:1 binding model. Binding curves giving Req/Rₘₐₓ ratios>90% or showing poor fitting were excluded from analysis. A second full kinetic experiment was performed with an adjusted concentration range (six points, 0.27-5 nM) and an extended dissociation step of 20 minutes.

[3] = target: T1, human complement protein C6; assay: ELISA, C6-coated wells, same experiment as the chimeric supernatants
Protocol: The chimeric molecules, MoC601 HuG4K and MoC601 HuG1KFab, were tested for C6 binding in the form of expression supernatants. In this experiment, the human molecules were detected with an HRP-conjugated goat anti-human kappa chain reagent, which gave relative low signals. However, the binding of both chimeric molecules to C6 was confirmed. The EC₅₀ value for MoC601 HuG4K (0.43 nM) was higher than that of the mouse antibody (0.07 nM), though this was lower than in previous experiments. A further experiment was performed to find a more suitable anti-human antibody detection reagent. MoC601 HuG4K from expression supernatant was detected with three different secondary antibodies. Both anti-human IgG Fc-specific and Fab-specific detection gave higher signals than the anti-kappa chain reagent but the Fc-specific detection yielded a very low EC₅₀ (0.03 nM).

[4] = target: T1, human complement protein C6; assay: ELISA, C6 coated at 0.5 and 1.0 µg/ml, anti-mouse IgG (Fc-specific) HRP
Protocol: Prior to the generation of the chimeric molecules, the binding ELISA was optimised using purified mouse 1C9 antibody. The ELISA method published in Lin et al., 2020, uses human C6 protein at a concentration of 1 nM (0.12 μg/ml) to coat the ELISA plate wells. Since this is lower than the concentrations generally used, coating concentration of 0.5 μg/ml and 1.0 μg/ml were also tested. Binding of the mouse antibody (designated MoC601 MoG1K) was detected with an HRP-conjugated goat anti-mouse IgG (Fc-specific) reagent in an ELISA assay. […] This is likely to make the assay unsuitable for differentiating between the binding of different humanized variants to C6. In contrast, C6 coating concentrations of 0.5 μg/ml and 1.0 μg/ml yield results which show a clear dose-response to MoC601 MoG1K antibody, with sigmoidal-shaped curves and a consistent EC₅₀ value (0.12 nM). […] Due to lower signal variation, 1.0 μg/ml was used as the C6 coating concentration in subsequent experiments.

[5] = target: T1, human complement protein C6; assay: BLI (Octet RED384), antibody on anti-mouse Fc (AMC) biosensors, C6 0.16-10 nM, 1:1 fit, experiment 1; experiment 1
Protocol: as §1, §2

[6] = target: T1, human complement protein C6; assay: ELISA, C6-coated wells
Protocol: as §1, with “AMC and […]” for “AMC and”

T1 sequence (P13671 22-934 limits assumed): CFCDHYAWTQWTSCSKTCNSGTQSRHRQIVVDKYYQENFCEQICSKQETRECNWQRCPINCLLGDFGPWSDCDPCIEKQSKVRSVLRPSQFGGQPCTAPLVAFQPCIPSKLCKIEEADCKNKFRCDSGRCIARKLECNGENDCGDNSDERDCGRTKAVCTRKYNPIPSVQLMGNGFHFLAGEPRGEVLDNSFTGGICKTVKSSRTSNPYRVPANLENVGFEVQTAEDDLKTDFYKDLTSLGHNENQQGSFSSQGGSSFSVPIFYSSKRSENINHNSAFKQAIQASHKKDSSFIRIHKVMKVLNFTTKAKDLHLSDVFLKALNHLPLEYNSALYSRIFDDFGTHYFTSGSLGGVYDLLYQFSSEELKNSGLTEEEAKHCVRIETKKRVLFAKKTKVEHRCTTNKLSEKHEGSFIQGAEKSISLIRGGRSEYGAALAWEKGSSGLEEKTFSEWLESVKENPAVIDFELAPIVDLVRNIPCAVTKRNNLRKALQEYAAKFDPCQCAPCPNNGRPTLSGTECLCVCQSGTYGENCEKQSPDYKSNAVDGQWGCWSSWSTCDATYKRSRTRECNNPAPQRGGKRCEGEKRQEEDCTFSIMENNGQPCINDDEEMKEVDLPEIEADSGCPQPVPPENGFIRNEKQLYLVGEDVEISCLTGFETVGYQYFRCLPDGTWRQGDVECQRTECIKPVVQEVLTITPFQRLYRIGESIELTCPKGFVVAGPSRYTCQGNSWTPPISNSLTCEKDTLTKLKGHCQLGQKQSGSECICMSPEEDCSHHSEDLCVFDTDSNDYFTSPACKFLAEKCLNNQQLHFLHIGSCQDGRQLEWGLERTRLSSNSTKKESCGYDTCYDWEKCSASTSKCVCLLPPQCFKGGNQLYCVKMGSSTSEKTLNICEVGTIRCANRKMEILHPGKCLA

B1: MoC601 MoG1K (mouse anti-C6 monoclonal antibody 1C9) (antibody, V domains shown)
VH: QVQLQQSGAELVKPGASVKISCKASGYAFSDYWMNWVKQRPGKGLEWIGQIYPGDDDTNYNGKFKGKATLTADKSSSTAYMQLSSLTSEDSAVYFCAREGYYGYTYVEYFDVWGTGTTVTVSS
VL: QIVLTQSPAIMSVSPGEKVTLTCSASSSVSYMHWYQQKSGTSPKRWIYDTSKLASGVPARFSGSGSGTSYSLTISSMEAEDAATYYCQQWTSNPLTFGAGTKLELR
notes: also called mAb 1C9; mouse antibody
Which Kd [1] does the source give for B1 here?
Its Kd is 0.42 nM.

And the kon [1]?
The kon was 730000 M⁻¹ s⁻¹.

What about the Kd [2] of the same binder?
The Kd was 0.29 nM.

And the kon [2]?
The kon was 690000 M⁻¹ s⁻¹.

What about the EC50 [3] of the same binder?
Its EC50 is 0.07 nM.

What about the EC50 [4] of the same binder?
Its EC50 is 0.12 nM.

What about the koff [5] of the same binder?
Its koff is 0.00031 s⁻¹.

And the EC50 [6]?
The EC50 was 0.11 nM.
